Results as given in paper PMC5927468.

Biological target: sorting nexin 9 (SNX9) (UniProt Q9Y5X1)
Assay: anti-eGFP nanobody pulldown, SNX9 immunoblot
Conditions: reference: Dyn1a wild type-eGFP; sites S774,S778

fold change: 3.6
Substance: dynamin-1 (Dyn1a) (from UniProt Q05193) Dyn1a S774/8A-eGFP
